These results are taken from PMC9482650, “Quantitative fragmentomics allow affinity mapping of interactomes” (Nature Communications, 2022).

Common to all, as to test: holdup assay
What all share (parameters): key: below the threshold = too weak to quantify, mostly under pKd 3.1 to 4
Common to all, as to conditions: plain residues with an end cap or a label only (N-terminal biotin on a linker: ado-ado)

Experiment [1] has as its target T1, NHERF3_4, Q5T2W1.
T1 sequence (Q5T2W1 373-468, limits assumed, looked up): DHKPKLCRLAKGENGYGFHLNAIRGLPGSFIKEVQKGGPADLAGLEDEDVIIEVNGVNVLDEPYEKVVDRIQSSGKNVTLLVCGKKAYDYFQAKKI

Experiment [2] addresses PICK1, Q9NRD5.
The target in experiment [3] is T2, MPDZ_10, O75970.
T2 sequence (O75970 1624-1722, limits assumed, looked up): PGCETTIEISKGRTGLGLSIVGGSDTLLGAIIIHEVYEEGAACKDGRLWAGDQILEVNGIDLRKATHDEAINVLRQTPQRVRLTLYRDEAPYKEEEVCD

The target of experiment [4] is T3, NHERF3_1, Q5T2W1.
T3 sequence (Q5T2W1 4-100, limits assumed, looked up): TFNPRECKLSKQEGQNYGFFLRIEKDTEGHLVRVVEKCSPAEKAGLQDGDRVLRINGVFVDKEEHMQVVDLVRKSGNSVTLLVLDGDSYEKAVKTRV

Experiment [5] concerns the target T4, DLG3_1, Q92796.
T4 sequence (Q92796 125-227, limits assumed, looked up): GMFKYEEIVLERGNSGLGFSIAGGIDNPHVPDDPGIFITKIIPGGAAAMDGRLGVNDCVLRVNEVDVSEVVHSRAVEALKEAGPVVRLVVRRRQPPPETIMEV

For experiment [6], the target named is T5, DFNB31_2, Q9P202.
T5 sequence (Q9P202 274-371, limits assumed, looked up): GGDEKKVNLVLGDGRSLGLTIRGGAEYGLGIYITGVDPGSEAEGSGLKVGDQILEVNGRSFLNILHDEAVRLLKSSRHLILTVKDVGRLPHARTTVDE

Experiment [7] addresses TJP1_2, Q07157.
Experiment [8] has as its target T6, LIN7A, O14910.
T6 sequence (O14910 103-200, limits assumed, looked up): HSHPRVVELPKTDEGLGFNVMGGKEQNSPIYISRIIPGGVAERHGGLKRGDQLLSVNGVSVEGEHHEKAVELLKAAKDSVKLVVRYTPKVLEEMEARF

Experiment [9] addresses T7, MPDZ_5, O75970.
T7 sequence (O75970 695-796, limits assumed, looked up): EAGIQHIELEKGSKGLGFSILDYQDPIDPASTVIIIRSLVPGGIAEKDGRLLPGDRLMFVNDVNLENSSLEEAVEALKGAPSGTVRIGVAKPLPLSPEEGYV

In experiment [10] the target is T8, ARHGAP21, Q5T5U3.
T8 sequence (Q5T5U3 45-169, limits assumed, looked up): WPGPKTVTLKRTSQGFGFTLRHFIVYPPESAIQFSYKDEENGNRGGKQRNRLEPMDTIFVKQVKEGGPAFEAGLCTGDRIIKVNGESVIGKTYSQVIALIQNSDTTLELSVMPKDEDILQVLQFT

Experiment [11] addresses PTPN3, P26045.
Experiment [12] concerns the target MAST1, Q9Y2H9.
For experiment [13], the target named is DLG2_2, Q15700.
Experiment [14] has as its target NOS1, P29475.
In experiment [15] the target is IL16_3, Q14005.
Chain of IL16_3, Q14005 (Q14005 1107-1207): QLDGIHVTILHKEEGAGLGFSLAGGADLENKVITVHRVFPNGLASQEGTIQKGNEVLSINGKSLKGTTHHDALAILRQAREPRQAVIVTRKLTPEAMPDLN
Experiment [16] deals with T9, TX1BP3, O14907.
T9 sequence (O14907 10-122, limits assumed, looked up): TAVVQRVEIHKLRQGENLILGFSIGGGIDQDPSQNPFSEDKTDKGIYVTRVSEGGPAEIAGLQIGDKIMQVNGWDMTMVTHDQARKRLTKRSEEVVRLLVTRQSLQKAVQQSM

Experiment [17] addresses T10, MPDZ_12, O75970.
T10 sequence (O75970 1857-1958, limits assumed, looked up): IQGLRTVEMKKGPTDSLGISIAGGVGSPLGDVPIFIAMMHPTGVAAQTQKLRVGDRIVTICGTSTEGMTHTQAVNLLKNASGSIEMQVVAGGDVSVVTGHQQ

Experiment [18] addresses MAGI2_5, Q86UL8.
Experiment [19] deals with DLG2_3, Q15700.
Experiment [20] has as its target T11, LRRC7, Q96NW7.
T11 sequence (Q96NW7 1440-1537, limits assumed, looked up): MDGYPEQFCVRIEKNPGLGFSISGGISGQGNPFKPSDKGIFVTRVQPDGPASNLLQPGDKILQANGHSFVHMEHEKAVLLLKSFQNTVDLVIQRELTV

Experiment [21] addresses DLG1_2, Q12959.
The target in experiment [22] is T12, APBA2_2, Q99767.
T12 sequence (Q99767 654-744, limits assumed, looked up): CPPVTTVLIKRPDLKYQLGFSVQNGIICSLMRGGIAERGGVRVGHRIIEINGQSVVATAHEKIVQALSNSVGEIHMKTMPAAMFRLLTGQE

Experiment [23] concerns the target T13, PDZRN3_1, Q9UPQ7.
T13 sequence (Q9UPQ7 244-349, limits assumed, looked up): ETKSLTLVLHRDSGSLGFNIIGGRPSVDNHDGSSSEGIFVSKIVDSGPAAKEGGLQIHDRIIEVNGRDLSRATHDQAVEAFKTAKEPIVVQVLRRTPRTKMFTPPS

The target of experiment [24] is HTRA1, Q92743.
Chain of HTRA1, Q92743 (Q92743 360-477): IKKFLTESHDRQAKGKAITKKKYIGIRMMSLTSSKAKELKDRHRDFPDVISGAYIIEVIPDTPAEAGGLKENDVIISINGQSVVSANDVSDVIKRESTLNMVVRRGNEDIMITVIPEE

Chain of PICK1, Q9NRD5 (Q9NRD5 17-115): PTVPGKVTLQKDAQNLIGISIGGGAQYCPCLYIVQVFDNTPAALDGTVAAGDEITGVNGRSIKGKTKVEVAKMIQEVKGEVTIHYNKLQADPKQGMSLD
Chain of TJP1_2, Q07157 (Q07157 181-274): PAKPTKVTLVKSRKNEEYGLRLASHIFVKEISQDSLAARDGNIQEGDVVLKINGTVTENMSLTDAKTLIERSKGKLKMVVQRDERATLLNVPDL
Chain of NOS1, P29475 (P29475 9-101): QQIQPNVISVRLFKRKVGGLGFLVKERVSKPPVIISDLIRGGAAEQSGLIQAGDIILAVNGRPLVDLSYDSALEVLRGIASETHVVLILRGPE
Chain of MAST1, Q9Y2H9 (Q9Y2H9 962-1065): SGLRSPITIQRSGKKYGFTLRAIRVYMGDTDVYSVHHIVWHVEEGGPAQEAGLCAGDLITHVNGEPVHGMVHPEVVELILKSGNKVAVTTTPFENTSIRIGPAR
Chain of DLG1_2, Q12959 (Q12959 314-412): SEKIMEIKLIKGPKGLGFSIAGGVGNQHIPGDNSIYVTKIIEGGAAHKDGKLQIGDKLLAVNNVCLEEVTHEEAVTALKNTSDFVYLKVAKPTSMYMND
Chain of MAGI2_5, Q86UL8 (Q86UL8 915-1017): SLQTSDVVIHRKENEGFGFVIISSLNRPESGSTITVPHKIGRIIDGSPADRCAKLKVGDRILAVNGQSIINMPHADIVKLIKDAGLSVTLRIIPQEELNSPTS
Chain of PTPN3, P26045 (P26045 505-587): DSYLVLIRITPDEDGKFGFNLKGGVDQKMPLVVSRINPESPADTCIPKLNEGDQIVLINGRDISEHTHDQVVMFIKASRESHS

KKAPTNEFYA [SDC4, P31431]: the pKd (as a rule, the Kd on a negative log10 scale, so that one unit is a factor of ten) in experiment [1] was “below the threshold”; in experiment [2] it was “below the threshold”; in experiment [3], “below the threshold”; in experiment [4], 3.79; in experiment [5], “below the threshold”; in [6] it was “below the threshold”. The negative-log Kd (pKd) result was “below the threshold” in experiment [7]; “below the threshold” in [8]; “below the threshold” in experiment [9]; “below the threshold” in experiment [10]; 4.02 in [11]; “below the threshold” in [12]. Further, the pKd entry in experiment [13] is “below the threshold”; in [14], “below the threshold”; in [15] it was “below the threshold”; in [16] it was 3.85; in [17] it was “below the threshold”; in experiment [18], “below the threshold”. Also, the pKd in experiment [19] is 3.62; in experiment [20] it was “below the threshold”; in experiment [21], “below the threshold”; in experiment [22] it was “below the threshold”; in experiment [23] it was “below the threshold”; in [24], 4.41.
For the molecule PRAEAEDSFL [PDGFRB, P09619], the negative-log Kd (pKd) result in experiment [1] was “below the threshold”; in experiment [2], 4.2; in experiment [3], “below the threshold”; in experiment [4] it was 4.76; in experiment [5], “below the threshold”; in experiment [6], “below the threshold”. In addition, the pKd is 3.58 in experiment [7]; 3.56 in experiment [8]; “below the threshold” in experiment [9]; 4 in experiment [10]; 4.45 in experiment [11]; 3.93 in experiment [12]. The negative-log Kd (pKd) entry is “below the threshold” in experiment [13]; 3.57 in [14]; 3.5 in [15]; 4.34 in experiment [16]; “below the threshold” in [17]; “below the threshold” in experiment [18]. Further, the negative logarithm of the Kd (pKd) entry in experiment [19] is “below the threshold”; in [20], 3.92; in experiment [21] it was 3.57; in experiment [22] it was “below the threshold”; in experiment [23] it was 3.7; in experiment [24] it was 4.27.
FNSYSLTGYV [CLDN2, P57739]: the pKd result in experiment [1] is “below the threshold”; in experiment [2] it was 4.14; in [3], “below the threshold”; in [4], 4.35; in experiment [5], “below the threshold”; in experiment [6], “below the threshold”. Moreover, the negative logarithm of the Kd (pKd) result was “below the threshold” in experiment [7]; “below the threshold” in [8]; “below the threshold” in [9]; 3.94 in experiment [10]; “below the threshold” in experiment [11]; 3.94 in [12]. In addition, the pKd entry is “below the threshold” in experiment [13]; “below the threshold” in experiment [14]; “below the threshold” in experiment [15]; 4.3 in experiment [16]; “below the threshold” in experiment [17]; “below the threshold” in experiment [18]. Moreover, the pKd result in experiment [19] is “below the threshold”; in experiment [20] it was “below the threshold”; in experiment [21], 3.49; in [22], “below the threshold”; in [23], “below the threshold”; in experiment [24], 4.4.
As for VKPQVSESKL [ACOT8, O14734], the negative logarithm of the Kd (pKd) entry in experiment [1] is “below the threshold”; in [2], 3.84; in experiment [3] it was “below the threshold”; in experiment [4], 5.33; in [5] it was “below the threshold”; in experiment [6], 3.62. In addition, the negative logarithm of the Kd (pKd) entry in experiment [7] is “below the threshold”; in experiment [8] it was “below the threshold”; in experiment [9], “below the threshold”; in experiment [10] it was “below the threshold”; in [11], 4.63; in experiment [12] it was 4.77. Besides, the pKd entry in [13], in experiment [14], in experiment [15], in experiment [16], in experiment [17] and in experiment [18] was “below the threshold” throughout. The negative-log Kd (pKd) was 3.74 in experiment [19]; “below the threshold” in experiment [20]; “below the threshold” in [21]; “below the threshold” in experiment [22]; 3.68 in [23]; “below the threshold” in experiment [24].
